{"source": "the supplement of paper PMC9732359", "test": "protein stability index of a GFP-peptide fusion (yeast GPS) (PSI 1-4); higher = more stable; sorted into four equal gates, so the index is relative within each strain", "in_short": "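Yeast carrying a pooled library were grown to mid-log phase in leucine-free medium. Each library plasmid expresses Cherry and has a tiled 17-residue yeast protein peptide fused downstream of GFP. Cells were sorted into four equal gates by GFP/Cherry ratio, and plasmids from each gate were PCR-amplified, Illumina-sequenced and assigned to strains by barcode. Summing, across gates, the read frequency times the gate number gave each peptide's protein stability index.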", "note": "± gives the uncertainty stated by the source."}
{"sequence": "SALEQAIIYQRGKDGKL [YGL100W/SEH1]", "values": [{"measurement": "protein stability index", "setting": "doa10∆", "result": "2.93 ± 0.073"}, {"measurement": "protein stability index", "setting": "pdr5∆", "result": "3.22 ± 0.051"}, {"measurement": "protein stability index", "setting": "san1∆", "result": "3.15 ± 0.047"}, {"measurement": "protein stability index", "setting": "ubr1∆", "result": "3 ± 0.06"}]}
{"sequence": "LAQLTSKLIPEVINKEI [RPS1A]", "values": [{"measurement": "protein stability index", "setting": "doa10∆", "result": "2.82 ± 0.1"}, {"measurement": "protein stability index", "setting": "pdr5∆", "result": "3.28 ± 0.1"}, {"measurement": "protein stability index", "setting": "san1∆", "result": "2.92 ± 0.073"}, {"measurement": "protein stability index", "setting": "ubr1∆", "result": "2.71 ± 0.07"}]}
{"sequence": "VDIKGEDLHEKNDSAEV [NUT1]", "values": [{"measurement": "protein stability index", "setting": "doa10∆", "result": "3.54 ± 0.12"}, {"measurement": "protein stability index", "setting": "pdr5∆", "result": "3.37 ± 0.2"}, {"measurement": "protein stability index", "setting": "san1∆", "result": "2.93 ± 0.19"}, {"measurement": "protein stability index", "setting": "ubr1∆", "result": "3.55 ± 0.12"}]}
{"sequence": "TKVLQFAAKQRQELQMQ [SNF2]", "values": [{"measurement": "protein stability index", "setting": "doa10∆", "result": "2.3 ± 0.12"}, {"measurement": "protein stability index", "setting": "pdr5∆", "result": "2.71 ± 0.076"}, {"measurement": "protein stability index", "setting": "san1∆", "result": "2.51 ± 0.059"}, {"measurement": "protein stability index", "setting": "ubr1∆", "result": "2.31 ± 0.083"}]}
{"sequence": "LLIGCKLDQDDEIYIPI [CSI1]", "values": [{"measurement": "protein stability index", "setting": "pdr5∆", "result": "3.12 ± 0.18"}, {"measurement": "protein stability index", "setting": "san1∆", "result": "3.01 ± 0.084"}, {"measurement": "protein stability index", "setting": "ubr1∆", "result": "3.09 ± 0.11"}]}
{"sequence": "DGKGAVYSFDPVGSYER [PRE7]", "values": [{"measurement": "protein stability index", "setting": "doa10∆", "result": "3.31 ± 0.18"}, {"measurement": "protein stability index", "setting": "pdr5∆", "result": "2.57 ± 0.12"}, {"measurement": "protein stability index", "setting": "san1∆", "result": "2.94 ± 0.15"}, {"measurement": "protein stability index", "setting": "ubr1∆", "result": "3.27 ± 0.081"}]}
{"sequence": "VDLEEVMDTIQEQITLY [SSN8]", "values": [{"measurement": "protein stability index", "setting": "doa10∆", "result": "3.33 ± 0.13"}, {"measurement": "protein stability index", "setting": "pdr5∆", "result": "3.18 ± 0.087"}, {"measurement": "protein stability index", "setting": "san1∆", "result": "3.16 ± 0.079"}, {"measurement": "protein stability index", "setting": "ubr1∆", "result": "3.32 ± 0.08"}]}
{"sequence": "SDELHNQSTIYEDEELS [LIN1]", "values": [{"measurement": "protein stability index", "setting": "doa10∆", "result": "3 ± 0.079"}, {"measurement": "protein stability index", "setting": "pdr5∆", "result": "2.87 ± 0.098"}, {"measurement": "protein stability index", "setting": "san1∆", "result": "3.11 ± 0.07"}, {"measurement": "protein stability index", "setting": "ubr1∆", "result": "2.97 ± 0.077"}]}
{"sequence": "LEEVSLKWIDTASKFGK [RPL3]", "values": [{"measurement": "protein stability index", "setting": "doa10∆", "result": "1.75 ± 0.097"}, {"measurement": "protein stability index", "setting": "pdr5∆", "result": "1.91 ± 0.092"}, {"measurement": "protein stability index", "setting": "san1∆", "result": "1.8 ± 0.12"}, {"measurement": "protein stability index", "setting": "ubr1∆", "result": "1.95 ± 0.089"}]}
{"sequence": "VDIYTHFTSPIRRYCDV [DIS3]", "values": [{"measurement": "protein stability index", "setting": "doa10∆", "result": "1.61 ± 0.043"}, {"measurement": "protein stability index", "setting": "pdr5∆", "result": "1.91 ± 0.055"}, {"measurement": "protein stability index", "setting": "san1∆", "result": "1.94 ± 0.073"}, {"measurement": "protein stability index", "setting": "ubr1∆", "result": "2.19 ± 0.04"}]}
{"sequence": "YVRAKFLDYTTDNVSMY [PRP8]", "values": [{"measurement": "protein stability index", "setting": "doa10∆", "result": "2.82 ± 0.059"}, {"measurement": "protein stability index", "setting": "pdr5∆", "result": "2.73 ± 0.064"}, {"measurement": "protein stability index", "setting": "san1∆", "result": "2.54 ± 0.063"}, {"measurement": "protein stability index", "setting": "ubr1∆", "result": "2.82 ± 0.061"}]}
{"sequence": "VAPVSEIVNMVPSHVPQ [SIR2]", "values": [{"measurement": "protein stability index", "setting": "doa10∆", "result": "3.01 ± 0.09"}, {"measurement": "protein stability index", "setting": "pdr5∆", "result": "2.96 ± 0.069"}, {"measurement": "protein stability index", "setting": "san1∆", "result": "2.66 ± 0.06"}, {"measurement": "protein stability index", "setting": "ubr1∆", "result": "2.87 ± 0.046"}]}
{"sequence": "LAKTKENYDAKIELEKK [YIL149C/MLP2]", "values": [{"measurement": "protein stability index", "setting": "doa10∆", "result": "3.22 ± 0.058"}, {"measurement": "protein stability index", "setting": "pdr5∆", "result": "3.47 ± 0.075"}, {"measurement": "protein stability index", "setting": "san1∆", "result": "3.05 ± 0.061"}, {"measurement": "protein stability index", "setting": "ubr1∆", "result": "3.13 ± 0.053"}]}
{"sequence": "LSALFTISSKPDILATD [YCS4]", "values": [{"measurement": "protein stability index", "setting": "doa10∆", "result": "2.32 ± 0.14"}, {"measurement": "protein stability index", "setting": "pdr5∆", "result": "2.78 ± 0.14"}, {"measurement": "protein stability index", "setting": "san1∆", "result": "2.72 ± 0.088"}, {"measurement": "protein stability index", "setting": "ubr1∆", "result": "2.98 ± 0.11"}]}
{"sequence": "HVLSRLSYISALGMMTR [RET1]", "values": [{"measurement": "protein stability index", "setting": "doa10∆", "result": "1.35 ± 0.073"}, {"measurement": "protein stability index", "setting": "pdr5∆", "result": "1.32 ± 0.053"}, {"measurement": "protein stability index", "setting": "san1∆", "result": "1.24 ± 0.13"}, {"measurement": "protein stability index", "setting": "ubr1∆", "result": "1.33 ± 0.073"}]}
{"sequence": "IQQLHSVLNPFLLRRVK [ISW2]", "values": [{"measurement": "protein stability index", "setting": "doa10∆", "result": "2.06 ± 0.061"}, {"measurement": "protein stability index", "setting": "pdr5∆", "result": "1.99 ± 0.05"}, {"measurement": "protein stability index", "setting": "san1∆", "result": "2.2 ± 0.059"}, {"measurement": "protein stability index", "setting": "ubr1∆", "result": "2.37 ± 0.041"}]}
{"sequence": "GKGLQSAIDVLDPLTKD [RPN2]", "values": [{"measurement": "protein stability index", "setting": "doa10∆", "result": "2.28 ± 0.069"}, {"measurement": "protein stability index", "setting": "pdr5∆", "result": "2.56 ± 0.079"}, {"measurement": "protein stability index", "setting": "san1∆", "result": "2.44 ± 0.1"}, {"measurement": "protein stability index", "setting": "ubr1∆", "result": "2.81 ± 0.069"}]}
{"sequence": "SKLDIYTQQQALEYIGA [RET1]", "values": [{"measurement": "protein stability index", "setting": "doa10∆", "result": "1.94 ± 0.12"}, {"measurement": "protein stability index", "setting": "pdr5∆", "result": "2.23 ± 0.1"}, {"measurement": "protein stability index", "setting": "san1∆", "result": "2.59 ± 0.12"}, {"measurement": "protein stability index", "setting": "ubr1∆", "result": "1.89 ± 0.13"}]}
{"sequence": "QLLQRLNDMNTEISGLK [SMC3]", "values": [{"measurement": "protein stability index", "setting": "doa10∆", "result": "3.28 ± 0.081"}, {"measurement": "protein stability index", "setting": "pdr5∆", "result": "3.38 ± 0.1"}, {"measurement": "protein stability index", "setting": "san1∆", "result": "3.22 ± 0.06"}, {"measurement": "protein stability index", "setting": "ubr1∆", "result": "3.3 ± 0.058"}]}
{"sequence": "RGPRNSREAVRHFGMGP [RPL18A]", "values": [{"measurement": "protein stability index", "setting": "doa10∆", "result": "2.53 ± 0.25"}, {"measurement": "protein stability index", "setting": "pdr5∆", "result": "2.86 ± 0.18"}]}
{"sequence": "FFPYYVHTIIAGLDEDG [PRE7]", "values": [{"measurement": "protein stability index", "setting": "doa10∆", "result": "3.65 ± 0.15"}, {"measurement": "protein stability index", "setting": "pdr5∆", "result": "3.31 ± 0.12"}, {"measurement": "protein stability index", "setting": "san1∆", "result": "3.35 ± 0.092"}, {"measurement": "protein stability index", "setting": "ubr1∆", "result": "3.26 ± 0.095"}]}
{"sequence": "NERLEINQEKPVKLDEN [SIR4]", "values": [{"measurement": "protein stability index", "setting": "doa10∆", "result": "3.19 ± 0.17"}, {"measurement": "protein stability index", "setting": "pdr5∆", "result": "3.05 ± 0.12"}, {"measurement": "protein stability index", "setting": "san1∆", "result": "3.44 ± 0.086"}, {"measurement": "protein stability index", "setting": "ubr1∆", "result": "3.3 ± 0.12"}]}
{"sequence": "ASRNVWSFYNGNVLIND [SNU114]", "values": [{"measurement": "protein stability index", "setting": "doa10∆", "result": "2.87 ± 0.12"}, {"measurement": "protein stability index", "setting": "pdr5∆", "result": "3.1 ± 0.082"}, {"measurement": "protein stability index", "setting": "san1∆", "result": "3.5 ± 0.053"}, {"measurement": "protein stability index", "setting": "ubr1∆", "result": "2.99 ± 0.063"}]}
{"sequence": "LDKFTDGGLFTLFVRDQ [QCR2]", "values": [{"measurement": "protein stability index", "setting": "doa10∆", "result": "2.98 ± 0.093"}, {"measurement": "protein stability index", "setting": "pdr5∆", "result": "3.14 ± 0.07"}, {"measurement": "protein stability index", "setting": "san1∆", "result": "3.19 ± 0.055"}, {"measurement": "protein stability index", "setting": "ubr1∆", "result": "3.31 ± 0.054"}]}
{"sequence": "DMKEYDSDKGSKLNELK [SMC2]", "values": [{"measurement": "protein stability index", "setting": "doa10∆", "result": "3.25 ± 0.14"}, {"measurement": "protein stability index", "setting": "pdr5∆", "result": "3.28 ± 0.1"}, {"measurement": "protein stability index", "setting": "san1∆", "result": "3.27 ± 0.072"}, {"measurement": "protein stability index", "setting": "ubr1∆", "result": "3.29 ± 0.14"}]}
{"sequence": "LKENAGSLTFLDNKGSG [YIL149C/MLP2]", "values": [{"measurement": "protein stability index", "setting": "doa10∆", "result": "3.31 ± 0.17"}, {"measurement": "protein stability index", "setting": "pdr5∆", "result": "3.37 ± 0.1"}, {"measurement": "protein stability index", "setting": "san1∆", "result": "3.55 ± 0.12"}, {"measurement": "protein stability index", "setting": "ubr1∆", "result": "3.48 ± 0.066"}]}
{"sequence": "VLPIFTTVFFSRQKSGL [YML031W/NDC1]", "values": [{"measurement": "protein stability index", "setting": "doa10∆", "result": "1.53 ± 0.075"}, {"measurement": "protein stability index", "setting": "pdr5∆", "result": "1.24 ± 0.082"}, {"measurement": "protein stability index", "setting": "san1∆", "result": "1.14 ± 0.095"}, {"measurement": "protein stability index", "setting": "ubr1∆", "result": "1.11 ± 0.077"}]}
